The results in this text go back to patent US5616562A, “Methods and compositions using substance P to promote wound healing” (priority 1994, dated 1997).

For data set [1], the system named is epithelial cells. The experiment in a line: SP analogs and fragment: stimulation of DNA synthesis / cell growth. The format is cell-based. As for the experimental part:
Several SP analogs were also tested for their ability to stimulate DNA synthesis. An SP analog where norleucine is substituted for methionine at the C-terminus was tested (Nle-SP). Norleucine is a structural analog of methionine where the sulfur is replaced with a CH2 group.

The test system of data set [2] is corneal epithelium. In words: Corneal re-epithelialization after debridement in rabbits given systemic capsaicin. Format: in vivo, rabbit. As for the experimental part: In order to investigate the effect of SP treatment on corneal epithelial cell growth, capsaicin (50 mg/kg) was injected subcutaneously into young rabbits on five consecutive days in order to deplete, lower, or block the release of SP in their corneas. Lidocain was injected subcutaneously into the injection site 10 minutes prior to the capsaicin injection. Three weeks after the last injection, the rabbits were anesthetized (ketamine/rompun), topical anesthetic applied to the cornea and the corneal epithelium of both eyes debrided to the limbal margin of clear cornea. The corneas were stained 2× daily with fluorescein and photographed using a cobalt filter to monitor re-epithelialization. Resultant photographs were projected onto a digitizing board and the surface area of ulceration determined. […] Clinically, the capsaicin treated rabbits differed from the control rabbits only in their impaired ability to re-epithelialize the denuded stroma.

Data set [3] relates to corneal epithelium. The experiment in a line: Morphological examination of adherence of regenerated corneal epithelium. Format: in vivo, rabbit. The following applies: after healing of the cornea; masked specimens; systemic capsaicin, or topical enkephalinase in normal rabbits. The text has this: For both capsaicin-treated rabbits and those treated with topical enkephalinase, regenerated epithelial layers could be easily rubbed off as a sheet of cells after healing of the cornea. This was not found in the control rabbits. Specimens from the various treatment groups were masked and morphologically examined to determine the nature of epithelial adherence. […] Thus, it appears that SP and other neuropeptides contribute to the attachment of epithelial cells during wound healing. Such contribution may take the form of elaboration of extracellular matrices (e.g., fibronectin) as well as development of cellular attachment mechanism, which activity would be in addition to their mitogenic activity in promoting cellular proliferation.

In data set [4] the test system is persistent non-septic corneal epithelial defects. The experiment in a line: Open-label clinical trial of topical SP in canine patients with chronic non-septic corneal epithelial defects. The format is in vivo, dog. Conditions: 500 μ/ml SP topical, 8 times daily. The text has this: This was a non-controlled open-label clinical trial conducted on canine patients seen in a specialty referral service for chronic, non-septic corneal epithelial defects. Criteria for inclusion included:
1. Absence of an identifiable underlying cause of the epithelial defect (lid abnormalities, decreased tear production etc.) on complete ophthalmic examination.
2. Persistence of the defect for at least 3 weeks.
3. Unresponsive to traditional therapy (topical broad spectrum antibiotics,some cases had received topical hyper-osmotic therapy, and 5 dogs had not healed after placement of a therapeutic soft contact bandage lens).
After obtaining informed consent from the owners, the dogs were taken into the hospital, an Elizabethan collar was placed (to keep the dog from rubbing its eye) and two drops of 500 μ/ml SP were instilled into the affected eye. The dogs were closely observed for any irritant effect of the drops. The dogs were then treated with one drop 8 times daily for duration of the trial.

Data set [5] has as its system epithelial cells. The experiment in a line: Effect of enkephalinase on the ability of SP and insulin to stimulate DNA synthesis. The format is cell-based. As for the experimental part: Substance P (SP) was tested for its ability to stimulate cell growth in epithelial cells from both cornea and lens that were arrested in the G1 /Go phase of the cell cycle in serum free media. […] See, FIG. 1 for corneal and FIG. 2 for lens epithelial cells. To test whether this effect was due to SP, 1 μg/ml of enkephalinase (an enzyme that cleaves SP between amino acid residues 6-7, 7-8, and 9-10) was added.
In the previous experiment, the enkephalinase was added to the cells at the same time as the SP.

Data set [6] deals with corneal epithelium. In words: Corneal re-epithelialization after debridement in non-capsaicin rabbits treated with topical enkephalinase. Format: in vivo, rabbit. The procedure: To evaluate the effect of SP depletion using another model, the corneal epithelium was removed from non-capsaicin treated rabbits as described above. Enkephalinase (which breaks down SP) was administered 4× daily to one eye of each bilaterally wounded rabbit. The fellow eye received vehicle only 4× daily. […] FIG. 4 underestimates the time course of epithelial healing of both capsaicin treated rabbits and enkephalinase treated corneas for many of these corneas had not re-epithelialized at the termination of the experiments. In 12 rabbits, the enkephalinase treated eye always took longer to heal. In FIG. 5, typical plots for one rabbit (the other 11 rabbits gave essentially the same results) of wound area with time are presented. The solid line represents the enkephalinase-treated eye while the broken line represents the control without enkephalinase. In each case the enkephalinase treated eye and the vehicle treated eye appeared to heal at the same rate for the first 80 to 90 hours. […] The initial healing rate was probably due to migration of pre-existing cells onto the peripheral wound. After 80 to 90 hours synthesis of new cells is required in order to completely cover the wound. […]

Where a SMILES comes first, the peptide text is derived from it. [ ]: non-standard residue; d: D form.

Consider `CC(C)C[C@H](NC(=O)[C@H](CC(C)C)NC(=O)[C@@H](Cc1c[nH]c2ccccc12)NC(=O)[C@H](Cc1ccccc1)NC(=O)[C@@H](Cc1c[nH]c2ccccc12)NC(=O)[C@H](CCC(N)=O)NC(=O)[C@H](CCC(N)=O)NC(=O)[C@@H]1CCCN1C(=O)[C@H](CCCCN)NC(=O)[C@@H]1CCCN1C(=O)[C@H](N)CCCNC(=N)N)C(N)=O` [spantide] (H-[dR]PKPQQ[dW]F[dW]LL-NH2), for which the “promotion of cellular growth” value in the data set on epithelial cells [1] was “stimulate epithelial cell growth”.

`COc1cc(CNC(=O)CCCC/C=C/C(C)C)ccc1O` [capsaicin]: the “time to re-epithelialize the denuded cornea” value in the data set with corneal epithelium [2] (capsaicin 50 mg/kg subcutaneously on five consecutive days, wounding three weeks later, vs 160 hours in non-capsaicin rabbits (FIG. 4)) stood at 460 h. For the same molecule, the “clinical evidence of impaired lacrimation or other secondary phenomenon” value with corneal epithelium [2] (capsaicin treated rabbits) is given as “No clinical evidence”. Also, the “adherence of regenerated corneal epithelium” value in the data set with corneal epithelium [3] was “poorly adhered”.

For “fragment of substance P including only amino acids 5-11: fragment of substance P including only amino acids 5-11 (GlnPhePheGlyLeuMet)”, the “promotion of cellular growth” value in the data set with epithelial cells [1] is on record as “active”.

Take `CSCC[C@H](NC(=O)[C@H](CC(C)C)NC(=O)CNC(=O)[C@H](Cc1ccccc1)NC(=O)[C@H](Cc1ccccc1)NC(=O)[C@H](CCC(N)=O)NC(=O)[C@H](CCC(N)=O)NC(=O)[C@@H]1CCCN1C(=O)[C@H](CCCCN)NC(=O)[C@@H]1CCCN1C(=O)[C@@H](N)CCCN=C(N)N)C(N)=O` [SP, Substance P]: in data set [4], the complications result was “No complications were observed”.

B1: enkephalinase: an enzyme that cleaves SP between amino acid residues 6-7, 7-8, and 9-10 (protein, UniProt P08473 2-750, looked up)
Neprilysin: GKSESQMDITDINTPKPKKKQRWTPLEISLSVLVLLLTIIAVTMIALYATYDDGICKSSDCIKSAARLIQNMDATTEPCTDFFKYACGGWLKRNVIPETSSRYGNFDILRDELEVVLKDVLQEPKTEDIVAVQKAKALYRSCINESAIDSRGGEPLLKLLPDIYGWPVATENWEQKYGASWTAEKAIAQLNSKYGKKVLINLFVGTDDKNSVNHVIHIDQPRLGLPSRDYYECTGIYKEACTAYVDFMISVARLIRQEERLPIDENQLALEMNKVMELEKEIANATAKPEDRNDPMLLYNKMTLAQIQNNFSLEINGKPFSWLNFTNEIMSTVNISITNEEDVVVYAPEYLTKLKPILTKYSARDLQNLMSWRFIMDLVSSLSRTYKESRNAFRKALYGTTSETATWRRCANYVNGNMENAVGRLYVEAAFAGESKHVVEDLIAQIREVFIQTLDDLTWMDAETKKRAEEKALAIKERIGYPDDIVSNDNKLNNEYLELNYKEDEYFENIIQNLKFSQSKQLKKLREKVDKDEWISGAAVVNAFYSSGRNQIVFPAGILQPPFFSAQQSNSLNYGGIGMVIGHEITHGFDDNGRNFNKDGDLVDWWTQQSASNFKEQSQCMVYQYGNFSWDLAGGQHLNGINTLGENIADNGGLGQAYRAYQNYIKKNGEEKLLPGLDLNHKQLFFLNFAQVWCGTYRPEYAVNSIKTDVHSPGNFRIIGTLQNSAEFSEAFHCRKNSYMNPEKKCRVW
For B1, the “adherence of regenerated corneal epithelium” value in the data set on corneal epithelium [3] is given as “poorly adhered”. In addition, the “effect of enkephalinase on SP-stimulated DNA synthesis” value with epithelial cells [5] (1 μg/ml enkephalinase added at the same time as SP (FIG. 3)) is “destroyed all activity of SP by itself”. For the same molecule, the “effect of enkephalinase on insulin-stimulated DNA synthesis” value in the data set with epithelial cells [5] (1 μg/ml enkephalinase, insulin alone (FIG. 3)) is on record as “did not affect the activity of insulin alone”. The “effect of enkephalinase pretreatment on the SP effect” value in the data set on epithelial cells [5] (cells pretreated 1 to 3 hours, enkephalinase then removed, especially in the presence of insulin) is on record as “enhancement of the SP effect”. In addition, the “harmful effects on epithelial cells” value with epithelial cells [5] (enkephalinase by itself) was “no harmful effects”. Besides, the “healing rate (wound area with time)” value in the data set with corneal epithelium [6] (after the first 80 to 90 hours (FIG. 5)) is “slow dramatically”. The “re-epithelialization compared to fellow eye treated with vehicle” value with corneal epithelium [6] (enkephalinase 4× daily to one eye, 12 rabbits (FIG. 4)) was “markedly impair re-epithelialization”.
